Test results published in PMC11986026.

Legend:
Experiment in all cases: cryo-EM structure; purified Wzc at ~2 mg/ml in LMNG, incubated with 1 mM ADP and 10 mM MgCl2 at 4 °C for 1 h; maps refined without symmetry (C1) or with C8 symmetry; octamer of one protein
[1] = target: Wzc^K540M2YE (K540M, Y718E, Y717E) from E. coli serotype K30 (E. coli K30) (UniProt P76387)
[2] = target: Wzc^K540M3YE (K540M, Y718E, Y717E and Y715E) from E. coli serotype K30 (E. coli K30) (UniProt P76387)
[3] = target: Wzc^K540M3YE_N711Y (K540M, Y718E, Y717E, Y715E and N711Y) from E. coli serotype K30 (E. coli K30) (UniProt P76387)

Wzc^K540M2YE (K540M, Y718E, Y717E) from E. coli serotype K30 (from UniProt P76387 1-720) (enzyme)
stoichiometry N [1]: 8

Wzc^K540M3YE (K540M, Y718E, Y717E and Y715E) from E. coli serotype K30 (from UniProt P76387 1-720) (enzyme)
stoichiometry N [2]: 8

Wzc^K540M3YE_N711Y (K540M, Y718E, Y717E, Y715E and N711Y) from E. coli serotype K30 (from UniProt P76387 1-720) (enzyme)
stoichiometry N [3]: 8
